One data set concerns the target T1, PpCE20_II (Pedobacter psychrotolerans, UniProt A0A4R2HIK5).
T1 construct: gene EV200_102244; catalytic residues Ser114, Asp518, His520
In words: p-nitrophenolate release, stopped with acetonitrile, […] nm. The following applies: preferred temperature and pH of the enzyme. The format is biochemical.

Data set [1] concerns the target T2, Fl8CE20_II (Salinimicrobium marinum, UniProt A0A918SDW1, Y335N).
T2 construct: gene GCM10007103_17970; pET28a(+), N-terminal 6xHis tag, expressed in E. coli BL21(DE3), SGNH hydrolase with inserted ancillary domain
In words: p-nitrophenol release, absorbance […] nm, Michaelis-Menten fit. The format is biochemical. The following applies: 50 mM Tris-HCl pH 8.0, 100 mM NaCl, 5% DMSO, room temperature.

Data set [2] has as its target T3, Fl8CE20_II (Salinimicrobium marinum, UniProt A0A918SDW1, K371M).
T3 construct: gene GCM10007103_17970; pET28a(+), N-terminal 6xHis tag, expressed in E. coli BL21(DE3), SGNH hydrolase with inserted ancillary domain
Described as above. Format: biochemical. To be noted: 50 mM Tris-HCl pH 8.0, 100 mM NaCl, 5% DMSO, room temperature.

Substrate in the data set “purified protein”: CC(=O)Oc1ccc([N+](=O)[O-])cc1
Description: purified protein. Format: biochemical, Salinimicrobium marinum. To be noted: 50 mM Tris-HCl pH 8.0, 100 mM NaCl, 5% DMSO, room temperature.

T2 sequence (A0A918SDW1 entry or part of it Y335N): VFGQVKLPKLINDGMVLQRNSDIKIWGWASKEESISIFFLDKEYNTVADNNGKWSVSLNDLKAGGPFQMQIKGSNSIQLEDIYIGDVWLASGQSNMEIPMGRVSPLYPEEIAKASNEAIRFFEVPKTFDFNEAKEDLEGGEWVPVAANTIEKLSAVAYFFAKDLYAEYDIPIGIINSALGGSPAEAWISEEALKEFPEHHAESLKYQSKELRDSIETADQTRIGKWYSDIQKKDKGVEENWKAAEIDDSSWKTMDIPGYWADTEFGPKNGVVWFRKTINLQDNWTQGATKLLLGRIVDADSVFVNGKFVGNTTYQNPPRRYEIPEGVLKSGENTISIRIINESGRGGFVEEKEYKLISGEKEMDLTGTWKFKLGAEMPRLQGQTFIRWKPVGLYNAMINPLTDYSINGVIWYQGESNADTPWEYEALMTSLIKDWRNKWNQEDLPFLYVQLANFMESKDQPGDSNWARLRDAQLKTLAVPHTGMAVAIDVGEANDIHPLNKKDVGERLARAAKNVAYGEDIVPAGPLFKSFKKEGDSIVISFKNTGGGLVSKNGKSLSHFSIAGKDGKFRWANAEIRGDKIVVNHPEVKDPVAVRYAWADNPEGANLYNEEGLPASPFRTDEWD
T3 sequence (A0A918SDW1 entry or part of it K371M): as the sequence (A0A918SDW1 entry or part of it Y335N) above, with N316Y, K352M counted along it
T1 sequence (A0A4R2HIK5 entry or part of it): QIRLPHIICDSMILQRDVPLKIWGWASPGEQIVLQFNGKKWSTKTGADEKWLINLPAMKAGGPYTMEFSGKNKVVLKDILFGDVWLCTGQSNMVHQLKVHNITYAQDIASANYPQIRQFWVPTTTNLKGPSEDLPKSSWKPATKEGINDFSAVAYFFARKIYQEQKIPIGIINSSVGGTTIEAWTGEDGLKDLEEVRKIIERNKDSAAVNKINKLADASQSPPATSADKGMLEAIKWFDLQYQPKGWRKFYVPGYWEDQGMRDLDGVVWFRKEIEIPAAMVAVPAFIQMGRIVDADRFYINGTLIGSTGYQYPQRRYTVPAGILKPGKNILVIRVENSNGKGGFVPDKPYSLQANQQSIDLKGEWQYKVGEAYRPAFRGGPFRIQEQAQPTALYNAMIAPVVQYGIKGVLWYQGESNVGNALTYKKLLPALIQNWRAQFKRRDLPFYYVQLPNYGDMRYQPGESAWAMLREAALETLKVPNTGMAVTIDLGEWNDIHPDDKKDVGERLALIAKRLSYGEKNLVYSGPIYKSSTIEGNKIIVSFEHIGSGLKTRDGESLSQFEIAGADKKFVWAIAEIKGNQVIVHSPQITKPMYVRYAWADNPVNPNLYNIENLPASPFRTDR

With `CC(=O)Oc1ccc([N+](=O)[O-])cc1` [pNP-acetate], the KM entry is “In terms of biochemical and kinetic behaviour, all enzymes showed similar properties” on PpCE20_II; “mutation of Tyr334 to Asn in the ancillary domain resulted in a decrease in kcat” on Fl8CE20_II [1]; “slight reduction of kcat while showing the same KM as the mutant D513N” at Fl8CE20_II [2].

B1: Fl8CE20_II (Salinimicrobium marinum) (protein)
chain: VFGQVKLPKLINDGMVLQRNSDIKIWGWASKEESISIFFLDKEYNTVADNNGKWSVSLNDLKAGGPFQMQIKGSNSIQLEDIYIGDVWLASGQSNMEIPMGRVSPLYPEEIAKASNEAIRFFEVPKTFDFNEAKEDLEGGEWVPVAANTIEKLSAVAYFFAKDLYAEYDIPIGIINSALGGSPAEAWISEEALKEFPEHHAESLKYQSKELRDSIETADQTRIGKWYSDIQKKDKGVEENWKAAEIDDSSWKTMDIPGYWADTEFGPKNGVVWFRKTINLQDNWTQGATKLLLGRIVDADSVFVNGKFVGNTTYQYPPRRYEIPEGVLKSGENTISIRIINESGRGGFVEEKEYKLISGEKEMDLTGTWKFKLGAEMPRLQGQTFIRWKPVGLYNAMINPLTDYSINGVIWYQGESNADTPWEYEALMTSLIKDWRNKWNQEDLPFLYVQLANFMESKDQPGDSNWARLRDAQLKTLAVPHTGMAVAIDVGEANDIHPLNKKDVGERLARAAKNVAYGEDIVPAGPLFKSFKKEGDSIVISFKNTGGGLVSKNGKSLSHFSIAGKDGKFRWANAEIRGDKIVVNHPEVKDPVAVRYAWADNPEGANLYNEEGLPASPFRTDEWD
notes: pET28a(+), N-terminal 6xHis tag, expressed in E. coli BL21(DE3), SGNH hydrolase with inserted ancillary domain
As usually defined, the Km is the substrate concentration at which the rate is half of its maximum. As a reminder, the kcat is the number of substrate molecules converted per active site and unit of time at saturation. B1: in “purified protein”, the Km was 620 µM and the kcat is 9.70 s⁻¹.

B2: Fl8CE20_II (Salinimicrobium marinum; S435A) (protein)
chain: VFGQVKLPKLINDGMVLQRNSDIKIWGWASKEESISIFFLDKEYNTVADNNGKWSVSLNDLKAGGPFQMQIKGSNSIQLEDIYIGDVWLASGQSNMEIPMGRVSPLYPEEIAKASNEAIRFFEVPKTFDFNEAKEDLEGGEWVPVAANTIEKLSAVAYFFAKDLYAEYDIPIGIINSALGGSPAEAWISEEALKEFPEHHAESLKYQSKELRDSIETADQTRIGKWYSDIQKKDKGVEENWKAAEIDDSSWKTMDIPGYWADTEFGPKNGVVWFRKTINLQDNWTQGATKLLLGRIVDADSVFVNGKFVGNTTYQYPPRRYEIPEGVLKSGENTISIRIINESGRGGFVEEKEYKLISGEKEMDLTGTWKFKLGAEMPRLQGQTFIRWKPVGLYNAMINPLTDYSINGVIWYQGEANADTPWEYEALMTSLIKDWRNKWNQEDLPFLYVQLANFMESKDQPGDSNWARLRDAQLKTLAVPHTGMAVAIDVGEANDIHPLNKKDVGERLARAAKNVAYGEDIVPAGPLFKSFKKEGDSIVISFKNTGGGLVSKNGKSLSHFSIAGKDGKFRWANAEIRGDKIVVNHPEVKDPVAVRYAWADNPEGANLYNEEGLPASPFRTDEWD
notes: as for B1
B2: in “purified protein”, the Km was 210 µM and the catalytic constant (kcat) is 4.48 s⁻¹.

B3: Fl8CE20_II (Salinimicrobium marinum; R314Q) (protein)
chain: VFGQVKLPKLINDGMVLQRNSDIKIWGWASKEESISIFFLDKEYNTVADNNGKWSVSLNDLKAGGPFQMQIKGSNSIQLEDIYIGDVWLASGQSNMEIPMGRVSPLYPEEIAKASNEAIRFFEVPKTFDFNEAKEDLEGGEWVPVAANTIEKLSAVAYFFAKDLYAEYDIPIGIINSALGGSPAEAWISEEALKEFPEHHAESLKYQSKELRDSIETADQTRIGKWYSDIQKKDKGVEENWKAAEIDDSSWKTMDIPGYWADTEFGPKNGVVWFRKTINLQDNWTQGATKLLLGQIVDADSVFVNGKFVGNTTYQYPPRRYEIPEGVLKSGENTISIRIINESGRGGFVEEKEYKLISGEKEMDLTGTWKFKLGAEMPRLQGQTFIRWKPVGLYNAMINPLTDYSINGVIWYQGESNADTPWEYEALMTSLIKDWRNKWNQEDLPFLYVQLANFMESKDQPGDSNWARLRDAQLKTLAVPHTGMAVAIDVGEANDIHPLNKKDVGERLARAAKNVAYGEDIVPAGPLFKSFKKEGDSIVISFKNTGGGLVSKNGKSLSHFSIAGKDGKFRWANAEIRGDKIVVNHPEVKDPVAVRYAWADNPEGANLYNEEGLPASPFRTDEWD
notes: as for B1
With B3, in the data set “purified protein”, the Michaelis-Menten constant (Km) came out at 40 µM and the kcat is 1.3 s⁻¹.

B4: Fl8CE20_II (Salinimicrobium marinum; D514Q) (protein)
chain: VFGQVKLPKLINDGMVLQRNSDIKIWGWASKEESISIFFLDKEYNTVADNNGKWSVSLNDLKAGGPFQMQIKGSNSIQLEDIYIGDVWLASGQSNMEIPMGRVSPLYPEEIAKASNEAIRFFEVPKTFDFNEAKEDLEGGEWVPVAANTIEKLSAVAYFFAKDLYAEYDIPIGIINSALGGSPAEAWISEEALKEFPEHHAESLKYQSKELRDSIETADQTRIGKWYSDIQKKDKGVEENWKAAEIDDSSWKTMDIPGYWADTEFGPKNGVVWFRKTINLQDNWTQGATKLLLGRIVDADSVFVNGKFVGNTTYQYPPRRYEIPEGVLKSGENTISIRIINESGRGGFVEEKEYKLISGEKEMDLTGTWKFKLGAEMPRLQGQTFIRWKPVGLYNAMINPLTDYSINGVIWYQGESNADTPWEYEALMTSLIKDWRNKWNQEDLPFLYVQLANFMESKDQPGDSNWARLRDAQLKTLAVPHTGMAVAIDVGEANQIHPLNKKDVGERLARAAKNVAYGEDIVPAGPLFKSFKKEGDSIVISFKNTGGGLVSKNGKSLSHFSIAGKDGKFRWANAEIRGDKIVVNHPEVKDPVAVRYAWADNPEGANLYNEEGLPASPFRTDEWD
notes: as for B1
As to B4, in “purified protein”, the Km came to 9890 µM and the catalytic constant (kcat) was 0.18 s⁻¹.

B5: Fl8CE20_II (Salinimicrobium marinum; D514E) (protein)
chain: VFGQVKLPKLINDGMVLQRNSDIKIWGWASKEESISIFFLDKEYNTVADNNGKWSVSLNDLKAGGPFQMQIKGSNSIQLEDIYIGDVWLASGQSNMEIPMGRVSPLYPEEIAKASNEAIRFFEVPKTFDFNEAKEDLEGGEWVPVAANTIEKLSAVAYFFAKDLYAEYDIPIGIINSALGGSPAEAWISEEALKEFPEHHAESLKYQSKELRDSIETADQTRIGKWYSDIQKKDKGVEENWKAAEIDDSSWKTMDIPGYWADTEFGPKNGVVWFRKTINLQDNWTQGATKLLLGRIVDADSVFVNGKFVGNTTYQYPPRRYEIPEGVLKSGENTISIRIINESGRGGFVEEKEYKLISGEKEMDLTGTWKFKLGAEMPRLQGQTFIRWKPVGLYNAMINPLTDYSINGVIWYQGESNADTPWEYEALMTSLIKDWRNKWNQEDLPFLYVQLANFMESKDQPGDSNWARLRDAQLKTLAVPHTGMAVAIDVGEANEIHPLNKKDVGERLARAAKNVAYGEDIVPAGPLFKSFKKEGDSIVISFKNTGGGLVSKNGKSLSHFSIAGKDGKFRWANAEIRGDKIVVNHPEVKDPVAVRYAWADNPEGANLYNEEGLPASPFRTDEWD
notes: as for B1
Consider B5, for which, in the data set “purified protein”, the Km came to 2300 µM and the catalytic constant (kcat) is 0.43 s⁻¹.

B6: Fl8CE20_II (Salinimicrobium marinum; R314E) (protein)
chain: VFGQVKLPKLINDGMVLQRNSDIKIWGWASKEESISIFFLDKEYNTVADNNGKWSVSLNDLKAGGPFQMQIKGSNSIQLEDIYIGDVWLASGQSNMEIPMGRVSPLYPEEIAKASNEAIRFFEVPKTFDFNEAKEDLEGGEWVPVAANTIEKLSAVAYFFAKDLYAEYDIPIGIINSALGGSPAEAWISEEALKEFPEHHAESLKYQSKELRDSIETADQTRIGKWYSDIQKKDKGVEENWKAAEIDDSSWKTMDIPGYWADTEFGPKNGVVWFRKTINLQDNWTQGATKLLLGEIVDADSVFVNGKFVGNTTYQYPPRRYEIPEGVLKSGENTISIRIINESGRGGFVEEKEYKLISGEKEMDLTGTWKFKLGAEMPRLQGQTFIRWKPVGLYNAMINPLTDYSINGVIWYQGESNADTPWEYEALMTSLIKDWRNKWNQEDLPFLYVQLANFMESKDQPGDSNWARLRDAQLKTLAVPHTGMAVAIDVGEANDIHPLNKKDVGERLARAAKNVAYGEDIVPAGPLFKSFKKEGDSIVISFKNTGGGLVSKNGKSLSHFSIAGKDGKFRWANAEIRGDKIVVNHPEVKDPVAVRYAWADNPEGANLYNEEGLPASPFRTDEWD
notes: as for B1
For B6, in “purified protein”, the Km was 300 µM and the turnover number (kcat) turned out to be 4.67 s⁻¹.

The values above are taken from publication PMC12313940, “Insights into a water-mediated catalytic triad architecture in CE20 carbohydrate esterases” (Nature Communications, 2025).
